Results: paper PMC3100534 (Nanomedicine : nanotechnology, biology, and medicine, 2011)

What was measured:
[1] = format: physicochemical; conditions: N = 90/x, ~90 DSPE-PEG2000 monomers per SSM, x = lipid molecules at saturation
[2] = cited from earlier work

Q: What does the source list for Human neuropeptide Y [NPY]?
A: maximal number of NPY molecules that could self-associate with one SSM [1]: three; half-life in vivo [2]: minutes
